Measurements as given in paper PMC5963890.
“And” between values parts separate entries of the source, which are not always exact repeats. Equal values may be shown once.

What was measured:
[1] = target: G20c portal protein L49C conjugated with maleimide-porphyrin (bacteriophage G20c); test: SEC
[2] = target: G20c portal protein L49C single mutant (bacteriophage G20c); test: negative-stain transmission electron microscopy
[3] = target: G20c portal protein L49C/V325G/I328G conjugated with maleimide-porphyrin (bacteriophage G20c); test: SEC
[4] = target: G20c portal protein L49C/V325G/I328G triple mutant (bacteriophage G20c); test: negative-stain transmission electron microscopy
[5] = target: G20c portal protein V325G mutant (bacteriophage G20c); test: crystal structure
[6] = target: G20c portal protein V325G/I328G double mutant (bacteriophage G20c); test: X-ray diffraction, self-rotation function

G20c portal protein L49C conjugated with maleimide-porphyrin (natural protein)
stoichiometry N [1]: 12 and 24

G20c portal protein L49C single mutant (natural protein)
stoichiometry N [2]: 12

G20c portal protein L49C/V325G/I328G conjugated with maleimide-porphyrin (natural protein)
stoichiometry N [3]: 12 and 24

G20c portal protein L49C/V325G/I328G triple mutant (natural protein)
stoichiometry N [4]: 12

G20c portal protein V325G mutant (natural protein)
stoichiometry N [5]: 12

G20c portal protein V325G/I328G double mutant (natural protein)
stoichiometry N [6]: 12
